Literature values, collected in publication PMC7927047.

What was measured:
[1] = biological target: Cbl-b (Type I orientation, R904) (Homo sapiens) (UniProt Q13191); assay: NMR titration
[2] = biological target: Cbl-b (Type II orientation, R911) (Homo sapiens) (UniProt Q13191); assay: NMR titration
Chain of Cbl-b (Type II orientation, R911) (Homo sapiens) (Q13191 whole entry): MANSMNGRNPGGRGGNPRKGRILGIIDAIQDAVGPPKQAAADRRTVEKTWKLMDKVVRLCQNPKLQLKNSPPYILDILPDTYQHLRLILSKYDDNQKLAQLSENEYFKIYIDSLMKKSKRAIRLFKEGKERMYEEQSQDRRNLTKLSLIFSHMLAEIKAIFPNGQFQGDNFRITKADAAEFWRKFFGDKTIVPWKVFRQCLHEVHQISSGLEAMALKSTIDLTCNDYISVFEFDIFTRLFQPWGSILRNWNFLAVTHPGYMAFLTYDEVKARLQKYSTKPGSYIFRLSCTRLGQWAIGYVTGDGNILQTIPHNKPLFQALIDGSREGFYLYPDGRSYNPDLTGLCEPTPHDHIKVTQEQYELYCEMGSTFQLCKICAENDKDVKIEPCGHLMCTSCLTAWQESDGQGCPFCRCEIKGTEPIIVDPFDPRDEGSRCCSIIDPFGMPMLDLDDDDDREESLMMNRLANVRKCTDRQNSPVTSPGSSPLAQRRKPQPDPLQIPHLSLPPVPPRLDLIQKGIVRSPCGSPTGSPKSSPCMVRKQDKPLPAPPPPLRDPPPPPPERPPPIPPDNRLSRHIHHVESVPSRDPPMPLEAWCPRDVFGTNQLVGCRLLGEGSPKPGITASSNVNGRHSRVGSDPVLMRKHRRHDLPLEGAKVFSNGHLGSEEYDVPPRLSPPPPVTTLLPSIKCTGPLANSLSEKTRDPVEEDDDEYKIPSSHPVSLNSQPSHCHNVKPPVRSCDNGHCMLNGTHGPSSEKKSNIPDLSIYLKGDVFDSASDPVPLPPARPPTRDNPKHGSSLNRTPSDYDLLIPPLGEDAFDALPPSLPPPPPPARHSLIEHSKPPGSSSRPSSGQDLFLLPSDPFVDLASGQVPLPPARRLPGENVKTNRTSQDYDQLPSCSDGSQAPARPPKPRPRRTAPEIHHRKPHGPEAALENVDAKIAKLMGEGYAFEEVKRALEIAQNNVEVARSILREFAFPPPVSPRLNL

Chain of CIN85 SH3 (Q96B97 1-58): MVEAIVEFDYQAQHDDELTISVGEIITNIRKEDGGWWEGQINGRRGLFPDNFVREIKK
Chain of Cbl-b (Type I orientation, R904) (Homo sapiens) (Q13191 whole entry): as the sequence (Q13191 whole entry) above

CIN85 SH3 (from UniProt Q96B97)
Kd [1]: 46.9 µM | Kd [2]: 2 µM
